What was measured:
Soluble human MSLN [1] = target: Soluble human MSLN (UniProt Q13421); test: Biacore; published value
Native hu MSLN (cells) = Native hu MSLN (cells) (UniProt Q13421); test: KinExA
Soluble human MSLN [2] = target: Soluble human MSLN (UniProt Q13421); test: Biacore

Sequence of Soluble human MSLN (Q13421 296-606): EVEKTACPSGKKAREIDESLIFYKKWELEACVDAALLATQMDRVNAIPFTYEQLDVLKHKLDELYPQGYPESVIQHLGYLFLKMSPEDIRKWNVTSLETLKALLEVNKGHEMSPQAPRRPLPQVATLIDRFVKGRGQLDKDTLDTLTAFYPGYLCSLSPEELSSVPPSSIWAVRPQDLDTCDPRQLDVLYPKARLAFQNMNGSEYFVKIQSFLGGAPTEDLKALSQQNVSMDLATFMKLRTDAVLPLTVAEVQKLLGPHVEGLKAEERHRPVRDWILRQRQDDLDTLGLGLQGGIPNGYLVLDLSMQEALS
Sequence of Native hu MSLN (cells) (Q13421 296-606): as above

Kd (Soluble human MSLN [1]): 1.5 nM
Kd (Native hu MSLN (cells)): 0.0022 nM
Kd (Soluble human MSLN [2]): 0.16 nM
Substance: Morab-009 (ssI CDRs)

From US20190055316A1
